Measurements: US20160137965A1

Assays:
α6β1 integrin [1] = target: α6β1 integrin (UniProt P23229); test: solid-phase binding assay: plate coated with 0.5 µg/cm^2 521E8, not dried, 10 nM α6β1 integrin
α6β1 integrin [2] = target: α6β1 integrin (UniProt P23229); test: solid-phase binding assay: plate coated with 1.0 µg/cm^2 521E8, not dried, 10 nM α6β1 integrin
α6β1 integrin [3] = target: α6β1 integrin (UniProt P23229); test: solid-phase binding assay: plate coated with 0.5 µg/cm^2 511E8 with 20% glucose (or some other candidates), dried 24 h, stored 1 week at 4°C, 10 nM α6β1 integrin, absorbance at 490 nm
α6β1 integrin [4] = target: α6β1 integrin (UniProt P23229); test: solid-phase binding assay: plate coated with 0.4 µg/cm^2 511E8, not dried, 10 nM α6β1 integrin
α6β1 integrin [5] = target: α6β1 integrin (UniProt P23229); test: solid-phase binding assay: plate coated with 0.75 µg/cm^2 511E8, dried 1 h at room temperature, 10 nM α6β1 integrin, absorbance at 490 nm
α6β1 integrin [6] = target: α6β1 integrin (UniProt P23229); test: solid-phase binding assay: plate coated with 1.0 µg/cm^2 511E8, not dried, 10 nM α6β1 integrin
α6β1 integrin [7] = target: α6β1 integrin (UniProt P23229); test: solid-phase binding assay: plate coated with 0.25 µg/cm^2 511E8 with 167 µg/mL gelatin, dried 1 h, 10 nM α6β1 integrin, absorbance at 490 nm
α6β1 integrin [8] = target: α6β1 integrin (UniProt P23229); test: solid-phase binding assay: plate coated with 0.4 µg/cm^2 511E8 with 0.8 µg/cm^2 211E8, dried 24 h, 10 nM α6β1 integrin, absorbance at 490 nm
α6β1 integrin [9] = target: α6β1 integrin (UniProt P23229); test: solid-phase binding assay: plate coated with 0.5 µg/cm^2 511E8 alone, dried 24 h, stored 1 week at 4°C, 10 nM α6β1 integrin, absorbance at 490 nm
α6β1 integrin [10] = target: α6β1 integrin (UniProt P23229); test: solid-phase binding assay: plate coated with 0.25 µg/cm^2 511E8 with 500 µg/mL gelatin, dried 1 h, 10 nM α6β1 integrin, absorbance at 490 nm
α6β1 integrin [11] = target: α6β1 integrin (UniProt P23229); test: solid-phase binding assay: plate coated with 0.5 µg/cm^2 511E8 with 0.05% gelatin, dried 24 h, stored 1 week at 4°C, 10 nM α6β1 integrin, absorbance at 490 nm
α6β1 integrin [12] = target: α6β1 integrin (UniProt P23229); test: solid-phase binding assay: plate coated with 0.5 µg/cm^2 511E8 with 0.1% BSA, dried 24 h, stored 1 week at 4°C, 10 nM α6β1 integrin, absorbance at 490 nm
α6β1 integrin [13] = target: α6β1 integrin (UniProt P23229); test: solid-phase binding assay: plate coated with 0.4 µg/cm^2 511E8 with 1.6 µg/cm^2 211E8, dried 24 h, 10 nM α6β1 integrin, absorbance at 490 nm
α6β1 integrin [14] = target: α6β1 integrin (UniProt P23229); test: solid-phase binding assay: plate coated with 0.5 µg/cm^2 511E8, not dried, 10 nM α6β1 integrin

Chain of UniProt P23229 (P23229 other isoform, or with tags, fused parts or gaps limits assumed, chain 1 of 2): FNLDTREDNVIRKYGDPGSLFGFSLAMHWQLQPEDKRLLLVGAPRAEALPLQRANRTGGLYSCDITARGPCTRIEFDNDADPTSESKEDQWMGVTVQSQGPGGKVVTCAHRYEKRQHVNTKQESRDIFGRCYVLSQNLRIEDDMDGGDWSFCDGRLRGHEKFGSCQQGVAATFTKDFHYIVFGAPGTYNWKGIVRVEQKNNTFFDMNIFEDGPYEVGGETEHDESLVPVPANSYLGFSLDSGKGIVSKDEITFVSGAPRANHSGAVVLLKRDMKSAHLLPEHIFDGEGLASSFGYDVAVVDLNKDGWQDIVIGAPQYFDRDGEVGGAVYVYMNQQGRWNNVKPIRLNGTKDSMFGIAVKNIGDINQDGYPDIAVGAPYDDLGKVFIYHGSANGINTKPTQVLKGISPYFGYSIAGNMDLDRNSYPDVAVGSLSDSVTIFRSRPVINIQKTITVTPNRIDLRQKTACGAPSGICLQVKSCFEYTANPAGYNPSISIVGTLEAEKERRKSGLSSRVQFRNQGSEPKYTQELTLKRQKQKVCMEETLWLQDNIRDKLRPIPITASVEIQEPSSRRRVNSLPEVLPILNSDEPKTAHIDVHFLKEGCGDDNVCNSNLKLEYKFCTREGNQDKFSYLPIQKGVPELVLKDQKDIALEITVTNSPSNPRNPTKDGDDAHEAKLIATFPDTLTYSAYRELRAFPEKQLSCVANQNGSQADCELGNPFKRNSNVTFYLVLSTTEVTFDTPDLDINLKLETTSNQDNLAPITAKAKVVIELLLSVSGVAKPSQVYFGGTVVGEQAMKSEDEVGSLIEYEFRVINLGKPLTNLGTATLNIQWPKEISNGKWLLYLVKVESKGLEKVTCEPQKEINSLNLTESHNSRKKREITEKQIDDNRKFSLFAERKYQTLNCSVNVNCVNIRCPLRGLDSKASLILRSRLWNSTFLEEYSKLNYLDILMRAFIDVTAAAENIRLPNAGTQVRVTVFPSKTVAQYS
Chain of UniProt P23229 (P05556 21-728 limits assumed, chain 2 of 2, further chain): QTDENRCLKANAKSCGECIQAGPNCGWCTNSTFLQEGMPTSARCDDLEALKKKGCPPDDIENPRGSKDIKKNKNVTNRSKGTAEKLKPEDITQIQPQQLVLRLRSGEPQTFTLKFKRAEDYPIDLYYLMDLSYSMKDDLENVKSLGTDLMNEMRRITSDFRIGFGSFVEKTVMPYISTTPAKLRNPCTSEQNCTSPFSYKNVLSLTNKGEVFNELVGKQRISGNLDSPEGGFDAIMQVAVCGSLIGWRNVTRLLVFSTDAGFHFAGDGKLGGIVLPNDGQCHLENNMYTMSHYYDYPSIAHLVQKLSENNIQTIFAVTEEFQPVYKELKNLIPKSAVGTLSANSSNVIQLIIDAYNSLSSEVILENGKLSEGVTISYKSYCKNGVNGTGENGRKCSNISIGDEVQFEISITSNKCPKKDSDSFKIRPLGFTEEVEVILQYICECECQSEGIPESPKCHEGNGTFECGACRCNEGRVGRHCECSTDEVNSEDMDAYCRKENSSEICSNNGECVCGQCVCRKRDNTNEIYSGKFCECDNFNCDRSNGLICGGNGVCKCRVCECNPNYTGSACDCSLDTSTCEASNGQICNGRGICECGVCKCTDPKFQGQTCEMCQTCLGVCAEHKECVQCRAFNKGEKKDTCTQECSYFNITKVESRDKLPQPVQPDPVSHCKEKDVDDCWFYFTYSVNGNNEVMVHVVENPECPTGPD

absorbance at 490 nm (amount of bound α6β1 integrin) (absorbance at 490 nm) (α6β1 integrin [1]) | absorbance at 490 nm (amount of bound α6β1 integrin) (absorbance at 490 nm) (α6β1 integrin [2]) | integrin binding activity relative to undried 511E8 control (100%) (α6β1 integrin [3]) [%] | absorbance at 490 nm (amount of bound α6β1 integrin) (absorbance at 490 nm) (α6β1 integrin [4]) | decrease of the amount of bound integrin after drying, against the undried control (α6β1 integrin [5]) [%] | absorbance at 490 nm (amount of bound α6β1 integrin) (absorbance at 490 nm) (α6β1 integrin [6]) | integrin binding activity after drying (percent remaining) (α6β1 integrin [7]) [%] | integrin binding activity relative to undried 511E8 control (α6β1 integrin [8]) [%] | integrin binding activity relative to undried 511E8 control (100%) (α6β1 integrin [9]) [%] | integrin binding activity after drying (percent remaining) (α6β1 integrin [10]) [%] | integrin binding activity relative to undried 511E8 control (100%) (α6β1 integrin [11]) [%] | integrin binding activity relative to undried 511E8 control (100%) (α6β1 integrin [12]) [%] | integrin binding activity relative to undried 511E8 control (α6β1 integrin [13]) [%] | absorbance at 490 nm (amount of bound α6β1 integrin) (absorbance at 490 nm) (α6β1 integrin [14]) | Substance
2.75 | 2.83 |  |  |  |  |  |  |  |  |  |  |  |  | Human recombinant laminin 521E8 (from UniProt O15230 2534-3327; P55268 1573-1798; P11047 1362-1608) (ligand)
 |  | 40 | 1.07 | 30 | 2.96 | 40 | 30 | < 10 | 70 | 90 | 90 | 80 | 2.62 | Human recombinant laminin 511E8 (from UniProt O15230 2534-3327; P07942 1561-1786; P11047 1362-1608) (ligand)
